Test results published in patent US20180155399A1.

T1: murine TFPI 1-160 (mouse), O54819
T1 chain: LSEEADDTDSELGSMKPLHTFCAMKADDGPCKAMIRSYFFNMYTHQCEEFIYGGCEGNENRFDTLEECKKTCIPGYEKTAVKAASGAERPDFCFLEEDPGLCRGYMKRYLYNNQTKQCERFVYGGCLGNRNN


These binders were tested against T2, human Tissue Factor Pathway Inhibitor-1α (TFPI-1α) (human), P10646 (assay: not given). Conditions: modification not given.
T2 sequence (P10646 29-304): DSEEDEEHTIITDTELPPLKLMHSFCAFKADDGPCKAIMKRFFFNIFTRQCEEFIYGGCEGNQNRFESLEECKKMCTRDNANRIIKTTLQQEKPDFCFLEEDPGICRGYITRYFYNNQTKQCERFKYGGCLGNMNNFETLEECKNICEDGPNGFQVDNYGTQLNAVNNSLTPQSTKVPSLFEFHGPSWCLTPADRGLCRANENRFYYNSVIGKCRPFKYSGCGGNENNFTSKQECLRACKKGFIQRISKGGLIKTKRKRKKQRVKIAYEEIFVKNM

EC50	Binder
220 nM	FQSKGNVFVTGYFARLRAKL [JBT0720]

Target: T1, murine TFPI 1-160 (mouse), O54819
Assay: cell-based or functional assay
Conditions: not given

FXa inhibition assay	Binder
> 10 µM	SYYKWHCAMRDMKGTMTCVWVKF (modifications not checked) [JBT1837]

Each binder was assayed against T2, human Tissue Factor Pathway … (assay: competition). Conditions: modification not given.

IC50	Binder
> 5000 nM	FQSKKNVFVFGYFERLFAKL [JBT0581]
> 5000 nM	FQSKKNVFDFGYFERLRAKL [JBT0592]
> 1670 nM	FQSLKNVFVFGYFERLRAKL [JBT0604]
> 5000 nM	FQSKGNVFVFAYFERLRAKL [JBT0525]
> 5000 nM	FQSKKNDFVFGYFERLRAKL [JBT0590]
27 nM	FQSKGNVFVTGYFARLRAKL [JBT0720]
1190 nM	FESKGNVFVFGYFERLRAKL [JBT0516]
> 5000 nM	FQFKKNVFVFGYFERLRAKL [JBT0571]
> 5000 nM	FQSKKFVFVFGYFERLRAKL [JBT0574]
> 5000 nM	FQSKKNVFVFGFFERLRAKL [JBT0577]
> 5000 nM	FQSKKNVFVFGYFERFRAKL [JBT0580]
> 5000 nM	FLSKKNVFVFGYFERLRAKL [JBT0602]
> 5000 nM	FQSKKNVFVFGYFERDRAKL [JBT0597]
> 5000 nM	FQSKKNVFVFGDFERLRAKL [JBT0594]
> 5000 nM	FQSKKNVFVFGYFERLDAKL [JBT0598]
188 nM	FQSKGDVFVFGYFERLRAKL [JBT0520]
73 nM	FQSVGNVFVDGYFERLSAKL [JBT1278]
> 1670 nM	FQSKLNVFVFGYFERLRAKL [JBT0605]

IC50	Binder
> 1670 nM	FQSKKNVFVFFYFERLRAKL [JBT0576]
100 nM	AQSKGNVFVFGYFERLRAKL [JBT0497]
> 5000 nM	FQSKKNVFVFGYFERLRFKL [JBT0582]
1370 nM	FQSKFNVFVFGYFERLRAKL [JBT0573]
40 nM	FQSKNNVFVHGYFERLRAKL [JBT0487]
> 5000 nM	FQSKKNVFVFGYFERLRAFL [JBT0583]
107 nM	FQSKGNVFVFGYFDRLRAKL [JBT0528]
> 5000 nM	FFSKKNVFVFGYFERLRAKL [JBT0570]
> 5000 nM	FQSFKNVFVFGYFERLRAKL [JBT0572]
> 5000 nM	FQSKKLVFVFGYFERLRAKL [JBT0606]
42 nM	FQSKGNVFVAGYFARLRAKL [JBT0806]
> 1670 nM	FDSKKNVFVFGYFERLRAKL [JBT0586]
> 1670 nM	LKARLREFYGFVFVNKKSQF [JBT0783]
> 5000 nM	FQSKKNVDVFGYFERLRAKL [JBT0591]
> 5000 nM	FQLKKNVFVFGYFERLRAKL [JBT0603]
> 5000 nM	FQSDKNVFVFGYFERLRAKL [JBT0588]
> 5000 nM	FQSKKNVFVFGYFEFLRAKL [JBT0579]
